Experimental data reported in patent publication US12338277.

Tests used:
Test in all cases: cell-based or functional assay
[1] = target: HIV-1 Env of pseudovirus 231966.c02 (HIV-1)
[2] = target: HIV-1 envelope of pseudovirus CNE52 (HIV-1)
[3] = target: HIV-1 Env of pseudovirus R2184.c04 (HIV-1)
[4] = target: HIV-1 Env of pseudovirus C3347.c11 (HIV-1)
[5] = target: HIV-1 envelope of pseudovirus CAP45.2.00.G3 (HIV-1)
[6] = target: HIV-1 Env of pseudovirus HIV-001428-2.42 (HIV-1)
[7] = target: HIV-1 Env of pseudovirus 6244_13_85_4576 (HIV-1)
[8] = target: HIV-1 Env of pseudovirus AC10.0.29 (HIV-1)
[9] = target: HIV-1 Env of pseudovirus TRJO4551.58 (HIV-1)
[10] = target: HIV-1 Env of pseudovirus HIV-16845-2.22 (HIV-1)
[11] = target: HIV-1 envelope of pseudovirus Q842.d12 (HIV-1)
[12] = target: HIV-1 envelope of pseudovirus CNE58 (HIV-1)
[13] = target: HIV-1 Env of pseudovirus Ce2060_G9 (HIV-1)
[14] = target: HIV-1 Env of pseudovirus 6952.v1.c20 (HIV-1)
[15] = target: HIV-1 envelope of pseudovirus C2101.c01 (HIV-1)
[16] = target: HIV-1 envelope of pseudovirus Q259.d2.17 (HIV-1)
[17] = target: HIV-1 envelope of pseudovirus BJOX015000.11.5 (HIV-1)
[18] = target: HIV-1 envelope of pseudovirus 9004SS_A3_4 (HIV-1)
[19] = target: HIV-1 Env of pseudovirus 7030102001E5(Rev-) (HIV-1)
[20] = target: HIV-1 envelope of pseudovirus R1166.c01 (HIV-1)
[21] = target: HIV-1 envelope of pseudovirus Ce2010_F5 (HIV-1)
[22] = target: HIV-1 Env of pseudovirus C4118.c09 (HIV-1)
[23] = target: HIV-1 Env of pseudovirus CNE52 (HIV-1)
[24] = target: HIV-1 Env of pseudovirus 263-8 (HIV-1)
[25] = target: HIV-1 envelope of pseudovirus 928-28 (HIV-1)
[26] = target: HIV-1 envelope of pseudovirus 3103.v3.c10 (HIV-1)
[27] = target: HIV-1 Env of pseudovirus 0815.v3.c3 (HIV-1)
[28] = target: HIV-1 Env of pseudovirus 3415.v1.c1 (HIV-1)
[29] = target: HIV-1 Env of pseudovirus 6811.v7.c18 (HIV-1)
[30] = target: HIV-1 envelope of pseudovirus 6240_08_TA5_4622 (HIV-1)
[31] = target: HIV-1 Env of pseudovirus CAP45.2.00.G3 (HIV-1)
[32] = target: HIV-1 Env of pseudovirus Q451.e2 (HIV-1)
[33] = target: HIV-1 Env of pseudovirus ZM197M.PB7 (HIV-1)
[34] = target: HIV-1 envelope of pseudovirus HIV-0013095-2.11 (HIV-1)
[35] = target: HIV-1 Env of pseudovirus 620345.c01 (HIV-1)
[36] = target: HIV-1 Env of pseudovirus CNE5 (HIV-1)
[37] = target: HIV-1 envelope of pseudovirus X1193_c1 (HIV-1)
[38] = target: HIV-1 Env of pseudovirus Q842.d12 (HIV-1)
[39] = target: HIV-1 envelope of pseudovirus 231966.c02 (HIV-1)
[40] = target: HIV-1 Env of pseudovirus Q23.17 (HIV-1)
[41] = target: HIV-1 envelope spike of pseudovirus CAAN5342.A2 (HIV-1)
[42] = target: HIV-1 Env of pseudovirus HIV-0013095-2.11 (HIV-1)
[43] = target: HIV-1 Env of pseudovirus ZM247v1(Rev-) (HIV-1)
[44] = target: HIV-1 envelope of pseudovirus Ce2060_G9 (HIV-1)
[45] = target: HIV-1 Env of pseudovirus Q769.d22 (HIV-1)
[46] = target: HIV-1 envelope of pseudovirus 235-47 (HIV-1)
[47] = target: HIV-1 Env of pseudovirus Ce0682_E4 (HIV-1)
[48] = target: HIV-1 envelope of pseudovirus HIV-001428-2.42 (HIV-1)
[49] = target: HIV-1 envelope of pseudovirus 7030102001E5(Rev-) (HIV-1)
[50] = target: HIV-1 Env of pseudovirus 62357_14_03_4589 (HIV-1)

Sequence of 10-996 (antibody) (VH): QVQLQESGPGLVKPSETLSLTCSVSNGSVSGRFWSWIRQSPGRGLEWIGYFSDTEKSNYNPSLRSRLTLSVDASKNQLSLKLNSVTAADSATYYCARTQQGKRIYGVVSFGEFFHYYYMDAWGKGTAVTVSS
Sequence of 10-996 (antibody) (VL): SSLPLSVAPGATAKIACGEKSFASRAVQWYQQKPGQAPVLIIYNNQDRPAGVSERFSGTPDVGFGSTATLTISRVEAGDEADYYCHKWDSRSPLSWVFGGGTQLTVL
Sequence of 10-1074 (antibody) (VH): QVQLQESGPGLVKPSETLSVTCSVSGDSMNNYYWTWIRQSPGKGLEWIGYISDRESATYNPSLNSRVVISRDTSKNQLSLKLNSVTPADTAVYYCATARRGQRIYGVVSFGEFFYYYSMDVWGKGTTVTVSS
Sequence of 10-1074 (antibody) (V domain): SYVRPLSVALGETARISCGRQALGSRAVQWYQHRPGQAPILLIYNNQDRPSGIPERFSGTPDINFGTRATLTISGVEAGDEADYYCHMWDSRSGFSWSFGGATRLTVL

Substance: 10-996 (antibody)
- IC80 (TZM-bl neutralization) [1]: > 50 µg/mL
- IC50 (TZM-bl neutralization) [2]: 4.53 µg/mL
- IC80 (TZM-bl neutralization) [3]: > 50 µg/mL
- IC80 (TZM-bl neutralization) [4]: > 50 µg/mL
- IC50 (TZM-bl neutralization) [5]: > 50 µg/mL
- IC80 (TZM-bl neutralization) [6]: 0.204 µg/mL
- IC80 (TZM-bl neutralization) [7]: 1.3 µg/mL
- IC80 (TZM-bl neutralization) [8]: 0.25 µg/mL
- IC80 (TZM-bl neutralization) [9]: 7.27 µg/mL
- IC80 (TZM-bl neutralization) [10]: 9.93 µg/mL
- IC50 (TZM-bl neutralization) [11]: > 50 µg/mL
- IC50 (TZM-bl neutralization) [12]: 0.57 µg/mL
- IC80 (TZM-bl neutralization) [13]: > 50 µg/mL
- IC80 (TZM-bl neutralization) [14]: 0.188 µg/mL
- IC50 (TZM-bl neutralization) [15]: > 50 µg/mL
- IC50 (TZM-bl neutralization) [16]: > 50 µg/mL
- IC50 (TZM-bl neutralization) [17]: > 50 µg/mL
- IC50 (TZM-bl neutralization) [18]: 0.012 µg/mL
- IC80 (TZM-bl neutralization) [19]: 0.044 µg/mL
- IC50 (TZM-bl neutralization) [20]: > 50 µg/mL
- IC50 (TZM-bl neutralization) [21]: > 50 µg/mL
- IC80 (TZM-bl neutralization) [22]: > 50 µg/mL
- IC80 (TZM-bl neutralization) [23]: 43.8 µg/mL
- IC80 (TZM-bl neutralization) [24]: > 50 µg/mL
- IC50 (TZM-bl neutralization) [25]: 1.33 µg/mL
- IC50 (TZM-bl neutralization) [26]: 0.053 µg/mL
- IC80 (TZM-bl neutralization) [27]: 0.251 µg/mL
- IC80 (TZM-bl neutralization) [28]: > 50 µg/mL
- IC80 (TZM-bl neutralization) [29]: 0.011 µg/mL
- IC50 (TZM-bl neutralization) [30]: 0.095 µg/mL
- IC80 (TZM-bl neutralization) [31]: > 50 µg/mL
- IC80 (TZM-bl neutralization) [32]: > 50 µg/mL
- IC80 (TZM-bl neutralization) [33]: > 50 µg/mL
- IC50 (TZM-bl neutralization) [34]: 31.5 µg/mL
- IC80 (TZM-bl neutralization) [35]: > 50 µg/mL
- IC80 (TZM-bl neutralization) [36]: > 50 µg/mL
- IC50 (TZM-bl neutralization) [37]: 0.144 µg/mL
- IC80 (TZM-bl neutralization) [38]: > 50 µg/mL
- IC50 (TZM-bl neutralization) [39]: > 50 µg/mL
- IC80 (TZM-bl neutralization) [40]: 0.03 µg/mL
- IC50 (TZM-bl neutralization assay) [41]: 0.007 µg/mL
- IC80 (TZM-bl neutralization assay) [41]: 0.06 µg/mL
- IC80 (TZM-bl neutralization) [42]: > 50 µg/mL
- IC80 (TZM-bl neutralization) [43]: 0.252 µg/mL
- IC50 (TZM-bl neutralization) [44]: > 50 µg/mL
- IC80 (TZM-bl neutralization) [45]: > 50 µg/mL
- IC50 (TZM-bl neutralization) [46]: 0.128 µg/mL
- IC80 (TZM-bl neutralization) [47]: > 50 µg/mL
- IC50 (TZM-bl neutralization) [48]: 0.04 µg/mL
- IC50 (TZM-bl neutralization) [49]: 0.013 µg/mL
- IC80 (TZM-bl neutralization) [50]: > 50 µg/mL

Substance: 10-1074 (antibody)
- IC80 (TZM-bl neutralization) [1]: > 50 µg/mL
- IC50 (TZM-bl neutralization) [2]: 1.23 µg/mL
- IC80 (TZM-bl neutralization) [3]: > 50 µg/mL
- IC80 (TZM-bl neutralization) [4]: > 50 µg/mL
- IC50 (TZM-bl neutralization) [5]: > 50 µg/mL
- IC80 (TZM-bl neutralization) [6]: 0.261 µg/mL
- IC80 (TZM-bl neutralization) [7]: 0.922 µg/mL
- IC80 (TZM-bl neutralization) [8]: 0.11 µg/mL
- IC80 (TZM-bl neutralization) [9]: 0.634 µg/mL
- IC80 (TZM-bl neutralization) [10]: 5.83 µg/mL
- IC50 (TZM-bl neutralization) [11]: > 50 µg/mL
- IC50 (TZM-bl neutralization) [12]: 0.267 µg/mL
- IC80 (TZM-bl neutralization) [13]: > 50 µg/mL
- IC80 (TZM-bl neutralization) [14]: 0.138 µg/mL
- IC50 (TZM-bl neutralization) [15]: > 50 µg/mL
- IC50 (TZM-bl neutralization) [16]: > 50 µg/mL
- IC50 (TZM-bl neutralization) [17]: > 50 µg/mL
- IC50 (TZM-bl neutralization) [18]: 0.011 µg/mL
- IC80 (TZM-bl neutralization) [19]: 0.021 µg/mL
- IC50 (TZM-bl neutralization) [20]: > 50 µg/mL
- IC50 (TZM-bl neutralization) [21]: > 50 µg/mL
- IC80 (TZM-bl neutralization) [22]: > 50 µg/mL
- IC80 (TZM-bl neutralization) [23]: 13.1 µg/mL
- IC80 (TZM-bl neutralization) [24]: 6.53 µg/mL
- IC50 (TZM-bl neutralization) [25]: 0.847 µg/mL
- IC50 (TZM-bl neutralization) [26]: 0.037 µg/mL
- IC80 (TZM-bl neutralization) [27]: 0.138 µg/mL
- IC80 (TZM-bl neutralization) [28]: > 50 µg/mL
- IC80 (TZM-bl neutralization) [29]: 0.01 µg/mL
- IC50 (TZM-bl neutralization) [30]: 0.068 µg/mL
- IC80 (TZM-bl neutralization) [31]: > 50 µg/mL
- IC80 (TZM-bl neutralization) [32]: > 50 µg/mL
- IC80 (TZM-bl neutralization) [33]: > 50 µg/mL
- IC50 (TZM-bl neutralization) [34]: > 50 µg/mL
- IC80 (TZM-bl neutralization) [35]: > 50 µg/mL
- IC80 (TZM-bl neutralization) [36]: > 50 µg/mL
- IC50 (TZM-bl neutralization) [37]: 0.083 µg/mL
- IC80 (TZM-bl neutralization) [38]: > 50 µg/mL
- IC50 (TZM-bl neutralization) [39]: > 50 µg/mL
- IC80 (TZM-bl neutralization) [40]: 0.021 µg/mL
- IC50 (TZM-bl neutralization assay) [41]: 0.007 µg/mL
- IC80 (TZM-bl neutralization assay) [41]: 0.044 µg/mL
- IC80 (TZM-bl neutralization) [42]: > 50 µg/mL
- IC80 (TZM-bl neutralization) [43]: 0.186 µg/mL
- IC50 (TZM-bl neutralization) [44]: > 50 µg/mL
- IC80 (TZM-bl neutralization) [45]: > 50 µg/mL
- IC50 (TZM-bl neutralization) [46]: 0.05 µg/mL
- IC80 (TZM-bl neutralization) [47]: > 50 µg/mL
- IC50 (TZM-bl neutralization) [48]: 0.044 µg/mL
- IC50 (TZM-bl neutralization) [49]: 0.006 µg/mL
- IC80 (TZM-bl neutralization) [50]: > 50 µg/mL
